Measured values as given in PMC10885737 (Journal of molecular biology, 2023).
Where two headings read alike, the source gives them in different places.

What was measured:
[1] = target: soluble disulfide-stabilized HIV-1 CA hexamer (A14C/E45C/W184A/M185A) (Human immunodeficiency virus type 1 group M subtype B, UniProt P12493, A146C/E177C/M317A/W316A); assay: biochemical; type: binding
[2] = target: soluble, disulfide-crosslinked HIV-1 CA hexamer (A14C/E45C/W184A/M185A) (HIV-1); assay: nanoDSF
[3] = target: disulfide-crosslinked A14C/E45C HIV-1 CA tubes (HIV-1); assay: co-sedimentation
[4] = target: soluble, disulfide-crosslinked HIV-1 CA hexamer (A14C/E45C/W184A/M185A) (HIV-1); assay: cryo-EM structure
[5] = Observation of proteolysis during protein preparation; type: physicochemical; details: recombinant protein preparation from E. coli
[6] = target: soluble, disulfide-crosslinked HIV-1 CA hexamer (A14C/E45C/W184A/M185A) (HIV-1); assay: nanoDSF; remark: listed apart in the source

Molecule: Ac-EIIAEDYDDDPVDYE-NH2 [15–6]
- Kd [1]: 54 ± 0.4 nM

Molecule: PQBP1 Nt peptide (residues 1–46) (from UniProt O60828 1-46)
- Kd [2]: 503 nM

Molecule: full-length recombinant PQBP1 (polyglutamine binding protein 1) (from UniProt O60828 1-265) (natural protein)
- shift in apparent Tm of CA [2]: 2 °C
- percent of input pelleted with the CA tubes [3]: 17%

Molecule: soluble, disulfide-crosslinked HIV-1 CA hexamer (A14C/E45C/W184A/M185A) (complex)
- stoichiometry N [4]: 6

B1: DE-to-G: recombinant DE-to-G PQBP1 mutant protein (protein)
chain: MPLPVALQTRLAKRGILKHLEPEPGGGIIAEDYGGGPVDYEATRLEGLPPSWYKVFDPSCGLPYYWNADTDLVSWLSPHDPNSVVTKSAKKLRSSNADAEEKLDRSHDKSDRGHDKSDRSHEKLDRGHDKSDRGHDKSDRDRERGYDKVDRERERDRERDRDRGYDKADREEGKERRHHRREELAPYPKSKKAVSRKDEELDPMDPSSYSDAPRGTWSTGLPKRNEAKTGADTTAAGPLFQQRPYPSPGAVLRANAEASRTKQQD
modifications: left off: His-tag (with Gly-Gly linker), C-terminal, state not stated
- Susceptibility to proteolysis [5]: prone to proteolysis

B2: PQBP1 15-mer peptide 15–6 (peptide)
peptide: Ac-EIIAEDYDDDPVDYE-NH2
- Kd [6]: 54 nM
